Patent US20240026330A1 (FLUX THERAPEUTICS, published 2024)

Tests used:
Assay in all cases: cell-based or functional assay
[1] = biological target: COX6A2-nanoluc-alfa-tag-fusion
[2] = biological target: T1, UQCC2-nanoluc-alfa-tag-fusion
T1 chain: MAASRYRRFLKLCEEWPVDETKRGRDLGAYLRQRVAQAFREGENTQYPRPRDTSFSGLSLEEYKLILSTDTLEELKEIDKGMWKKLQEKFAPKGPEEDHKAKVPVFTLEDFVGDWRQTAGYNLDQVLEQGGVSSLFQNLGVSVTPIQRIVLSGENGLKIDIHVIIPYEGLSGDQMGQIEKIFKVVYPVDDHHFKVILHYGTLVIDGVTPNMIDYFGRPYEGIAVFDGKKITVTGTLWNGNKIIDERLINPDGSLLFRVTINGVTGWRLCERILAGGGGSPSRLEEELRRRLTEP

[3] = biological target: T2, LYRM7-nanoluc-alfa-tag-fusion
T2 chain: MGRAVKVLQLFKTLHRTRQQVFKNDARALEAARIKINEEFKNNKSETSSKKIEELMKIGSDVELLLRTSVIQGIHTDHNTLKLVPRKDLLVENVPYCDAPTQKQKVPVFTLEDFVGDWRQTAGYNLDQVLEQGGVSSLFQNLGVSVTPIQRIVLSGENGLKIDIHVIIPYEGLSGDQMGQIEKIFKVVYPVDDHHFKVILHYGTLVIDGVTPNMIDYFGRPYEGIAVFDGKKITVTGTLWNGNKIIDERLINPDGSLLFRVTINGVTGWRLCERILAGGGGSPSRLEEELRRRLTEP

fold increase in COX6A2 protein expression (NLuc signal divided by firefly luciferase signal, relative to control) [1]: 1.48 fold
fold increase in UQCC2 protein expression (NLuc signal divided by firefly luciferase signal, relative to control) [2]: 2.87 fold
fold increase in LYRM7 protein expression (NLuc signal divided by firefly luciferase signal, relative to control) [3]: 1.39 fold
B1: FireflyLuciferase-P2A-a_alfatag_nano-Cezanne (other)
chain: MEDAKNIKKGPAPFYPLEDGTAGEQLHKAMKRYALVPGTIAFTDAHIEVDITYAEYFEMSVRLAEAMKRYGLNTNHRIVVCSENSLQFFMPVLGALFIGVAVAPANDIYNERELLNSMGISQPTVVFVSKKGLQKILNVQKKLPIIQKIIIMDSKTDYQGFQSMYTFVTSHLPPGFNEYDFVPESFDRDKTIALIMNSSGSTGLPKGVALPHRTACVRFSHARDPIFGNQIIPDTAILSVVPFHHGFGMFTTLGYLICGFRVVLMYRFEEELFLRSLQDYKIQSALLVPTLFSFFAKSTLIDKYDLSNLHEIASGGAPLSKEVGEAVAKRFHLPGIRQGYGLTETTSAILITPEGDDKPGAVGKVVPFFEAKVVDLDTGKTLGVNQRGELCVRGPMIMSGYVNNPEATNALIDKDGWLHSGDIAYWDEDEHFFIVDRLKSLIKYKGYQVAPAELESILLQHPNIFDAGVAGLPDDDAGELPAAVVVLEHGKTMTEKEIVDYVASQVTTAKKLRGGVVFVDEVPKGLTGKLDARKIREILIKAKKGGKIAVTRLKGSGATNFSLLKQAGDVEENPGPRSGTGSSGEVQLQESGGGLVQPGGSLRLSCTASGVTISALNAMAMGWYRQAPGERRVMVAAVSERGNAMYRESVQGRFTVTRDFTNKMVSLQMDNLKPEDTAVYYCHVLEDRVDSFHDYWGQGTQVTVSSGAPGSGPPSFSEGSGGSRTPEKGFSDREPTRPPRPILQRQDDIVQEKRLSRGISHASSSIVSLARSHVSSNGGGGGSNEHPLEMPICAFQLPDLTVYNEDFRSFIERDLIEQSMLVALEQAGRLNWWVSVDPTSQRLLPLATTGDGNCLLHAASLGMWGFHDRDLMLRKALYALMEKGVEKEALKRRWRWQQTQQNKESGLVYTEDEWQKEWNELIKLASSEPRMHLGTNGANCGGVESSEEPVYESLEEFHVFVLAHVLRRPIVVVADTMLRDSGGEAFAPIPFGGIYLPLEVPASQCHRSPLVLAYDQAHFSALVSMEQKENTKEQAVIPLTDSEYKLLPLHFAVDPGKGWEWGKDDSDNVRLASVILSLEVKLHLLHSYMNVKWIPLSSDAQAPLAQ
